Measured values reported in patent publication US20100015126A1, “Methods of Binding of Cross-Beta Structures By Chaperones” (priority 2006, published 2010).

Tests used:
BiP-Sepharose = molecular target: T1, BiP-Sepharose (Homo sapiens, UniProt P11021); test: Experiment 2: BiP-Sepharose extraction from six synovial fluid samples of RA patients and mass spectrometry; type: binding; settings: BiP-Sepharose eluate, synovial fluid of RA patient
T1 construct: The human BiP gene except the signal peptide encoding region was obtained from Geneart (Germany); linker […]; made in house; host or cells: HEK 293E cells, transient transfection, PABC674 vector; secreted into the medium
T1 sequence (P11021 19-654): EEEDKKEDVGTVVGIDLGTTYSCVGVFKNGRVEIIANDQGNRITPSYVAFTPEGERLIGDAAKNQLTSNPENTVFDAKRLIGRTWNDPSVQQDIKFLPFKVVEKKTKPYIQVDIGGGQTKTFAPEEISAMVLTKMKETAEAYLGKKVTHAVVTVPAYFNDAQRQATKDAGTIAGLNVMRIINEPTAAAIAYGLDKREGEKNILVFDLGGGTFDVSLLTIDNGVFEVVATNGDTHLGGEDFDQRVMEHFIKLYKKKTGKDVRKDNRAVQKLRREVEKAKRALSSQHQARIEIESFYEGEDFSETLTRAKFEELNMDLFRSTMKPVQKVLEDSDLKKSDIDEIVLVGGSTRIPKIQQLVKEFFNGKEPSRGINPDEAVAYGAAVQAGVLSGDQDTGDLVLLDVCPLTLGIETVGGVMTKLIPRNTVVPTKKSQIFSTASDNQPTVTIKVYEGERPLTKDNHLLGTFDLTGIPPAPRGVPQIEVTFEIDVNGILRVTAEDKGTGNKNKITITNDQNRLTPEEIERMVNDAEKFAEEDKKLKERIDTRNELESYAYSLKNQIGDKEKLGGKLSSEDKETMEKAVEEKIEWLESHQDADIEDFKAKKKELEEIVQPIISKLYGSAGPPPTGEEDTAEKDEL
Experimental: Six samples were incubated with the BiP-Sepharose, IgIV-Sepharose and the control-Sepharose: Normal pooled plasma, plasma of a patient I or of a patient II, with AL amyloidosis, serum of a patient III with RA (Rheumatoid Factor (RF) titer 682), control serum and synovial fluid of a patient IV with RA (RF titer 23). All samples were diluted 20× in HBS and applied to 200 μl beads in two volumes of 500 μl. One volume was incubated for 4 h at RT and supernatant was discarded after centrifugation (2 minutes at 1400 rpm). Subsequently, the second volume was applied to the same matrix and incubated overnight on a roller device at 4° C. […] To collect the eluates, the matrices were centrifuged and the two eluates were pooled for each sample.
Protein digests were desalted as described (Rappsilber et al., 2003), vacuum dried and dissolved in 2.5% formic acid.
For analysis of peptide mixtures, an Agilent 1100 HPLC system (Agilent Technologies) connected to a Thermo Finnigan LTQ-MS (Thermo Electron, Bremen, Germany) was used. Protein digests were injected on a trap column (Reprosil C18 RP (Dr Maisch, Germany), 20 mm×100 μm I.D.) at 5 μl/minute. Subsequently, the peptides were transferred with a split-reduced flow rate of 100 nL/minute solvent A (0.1 M acetic acid) on the analytical column (Reprosil C18 RP, 20 cm×50 μm I.D.). […] The column effluent was directly introduced into the ESI source of the mass spectrometer via a butt-connected nano-ESI emitter (New Objectives, Woburn, Mass.). The mass spectrometer was operated in the positive ion mode and parent ions were selected for fragmentation in data-dependent mode.
After mass spectrometric measurements, peak lists were generated using BioWorks software (Thermo Electron, Bremen, Germany). Protein identification was performed using Mascot software (www.matrixscience.com) by searching the IPIhuman database (version 3.24, downloaded from ftp://ftp.ebi.ac.uk/pub/databases/IPI/current) using the following settings: fully tryptic peptides, peptide tolerance 0.8 Da, MS/MS tolerance 0.9 Da, 1 missed cleavage allowed, carbamidomethyl (Cys) and oxidation (Met) as fixed and variable modification, respectively. The Scaffold software package (www.proteomesoftware.com) was used to parse the data and to filter peptides at a confidence level of 95%, allowing only protein identification with at least 2 peptides identified.
Those samples are listed below: • 1. […] One difference when compared to the protocol described above is that now with the twelve samples, elution buffer comprised 1 M NaCl. Again, a misfolded protein or a protein binding to misfolded protein is identified uniquely in the synovial fluid when no or a relatively very low number of fragments are detected in eluates of control-Sepharose.

human BiP [1] = molecular target: T2, human BiP (Homo sapiens, UniProt P11021); test: ELISA: binding of BiP-FLAG-His to immobilized (misfolded) protein ligands; settings: ligands coated at 5 μg/ml; 6BB peptides and oxLDL 50 μg/ml
T2 construct: The human BiP gene except the signal peptide encoding region was obtained from Geneart (Germany); linker […]; made in house; host or cells: HEK 293E cells, transient transfection, PABC674 vector; secreted into the medium
T2 sequence (P11021 19-654): as above
Experimental: Enzyme Linked Immunosorbent Assay for Testing of Chaperone Binding to Misfolded Proteins
Binding of chaperones to immobilized (misfolded) protein ligands was determined using an enzyme linked immuno sorbent assay (ELISA) approach. For this purpose 50 μl/well of potential ligands at indicated concentrations or coat buffer only for control and background measurement purposes, were coated overnight at 4° C. or coated for 1 h at room temperature, with motion, in 50 mM NaHCO3 pH 9.6 (coat buffer). In general, ligands were coated at 5 μg/ml, unless stated otherwise. For example, BiP binding peptides 6BB# and oxLDL were coated at 50 μg/ml. Native haemoglobin (Sigma-Aldrich, H7379), albumin, IgIV Gammagard and ovalbumin controls were prepared from lyophilized stocks. The controls were prepared by dissolving lyophilized proteins at 1 mg/ml in PBS upon resuspending by pipetting, followed by a 30 minutes period at the roller device, at room temperature. The protein solutions were centrifuged for 10 minutes at 16,000*g and diluted in coat buffer. After coating the plates were washed at least three times with 50 mM Tris-HCl pH 7.3, 150 mM NaCl, 0.1% v/v Tween20, and blocked with Blocking reagent (Roche Diagnostics, Almere, The Netherlands; 11112589001), for 1 h at room temperature, with motion. Plates were washed three times and incubated in triplicate with indicated chaperone dilution series, at 50 μl/well, for 1 h at room temperature, with constant motion. For HSP90, 5 mM DTT is incorporated in the binding buffer (PBS/0.1% Tween20) to avoid unwanted disulfide bond formation of the HSP90. Plates were washed three times and incubated with anti-FLAG antibody (mouse antibody, M2, peroxidase conjugate; Sigma, A-8592) for BiP-FLAG-His, anti-His-tag antibody (Mouse Monoclonal Antibody, Cat. No. 70796, Novagen [0.2 mg/ml]) for HSP60, a 1:1 mix of 500-fold diluted anti-HSP90beta antibodies (Stressgen, SPA-643 [mouse monoclonal IgM], SPA-646 [rabbit polyclonal]) for HSP90 and an anti-DnaK antibody (Stressgen, 023SPA-880D [mouse monoclonal antibody]) for DnaK. After four wash cycles, secondary antibodies were added to the wells when required, 50 μl/well, for 45′ at room temperature, with motion. RAMPO and SWARPO were used at 3000 times dilution. […] In a second experiment with more immobilized misfolded proteins and controls, the detection of bound HSP90 with the mix of two anti-HSP90 antibodies was achieved by mixing 1:1500 SWARPO with 1:3000 RAMPO. After 5 washes with wash buffer followed by two washes with PBS, binding of antibodies was assessed. Bound anti-FLAG-PO, peroxidase-conjugated rabbit anti-mouse immunoglobulins (RAMPO, P0260, DAKOCytomation, Glostrup, Denmark) or peroxidase-coupled swine anti-rabbit immunoglobulins (SWARPO, P0217, DAKOCytomation) was visualized with tetramethylbenzidine (TMB, #45.01.20,/#45.014.01, Biosource, Nivelles, Belgium). The reaction was stopped after 5 minutes with 1% H2SO4 in H2O. Plates were read at 450 nm. Triplicates were averaged and standard deviations calculated. Background signals obtained with buffer-coated wells were subtracted (binding of primary antibody to empty wells), as well as background signals obtained with ligand-coated wells in which the chaperones were omitted (binding of primary and secondary antibody to coated ligands). Subsequently, sub-optimal concentrations of chaperones for binding to misfolded protein ligands are determined, and these concentrations are used for inhibition studies. […] We have previously identified that a sub-fraction of IgIV molecules has affinity for misfolded proteins comprising crossbeta structure (pending patent application). Moreover, we identified that the sub-fraction of IgIV molecules directly binds to crossbeta structure and/or crossbeta structure induced conformation (not shown; pending patent application). […]

human BiP [2] = molecular target: T2, human BiP; test: Competition ELISA: BiP binding to misfolded proteins under influence of crossbeta binding compounds
Experimental: Binding of chaperones to immobilized (misfolded) protein ligands was determined using an enzyme linked immuno sorbent assay (ELISA) approach. For this purpose 50 μl/well of potential ligands at indicated concentrations or coat buffer only for control and background measurement purposes, were coated overnight at 4° C. or coated for 1 h at room temperature, with motion, in 50 mM NaHCO3 pH 9.6 (coat buffer). In general, ligands were coated at 5 μg/ml, unless stated otherwise. For example, BiP binding peptides 6BB# and oxLDL were coated at 50 μg/ml. Native haemoglobin (Sigma-Aldrich, H7379), albumin, IgIV Gammagard and ovalbumin controls were prepared from lyophilized stocks. The controls were prepared by dissolving lyophilized proteins at 1 mg/ml in PBS upon resuspending by pipetting, followed by a 30 minutes period at the roller device, at room temperature. The protein solutions were centrifuged for 10 minutes at 16,000*g and diluted in coat buffer. After coating the plates were washed at least three times with 50 mM Tris-HCl pH 7.3, 150 mM NaCl, 0.1% v/v Tween20, and blocked with Blocking reagent (Roche Diagnostics, Almere, The Netherlands; 11112589001), for 1 h at room temperature, with motion. Plates were washed three times and incubated in triplicate with indicated chaperone dilution series, at 50 μl/well, for 1 h at room temperature, with constant motion. For HSP90, 5 mM DTT is incorporated in the binding buffer (PBS/0.1% Tween20) to avoid unwanted disulfide bond formation of the HSP90. […] After four wash cycles, secondary antibodies were added to the wells when required, 50 μl/well, for 45′ at room temperature, with motion. RAMPO and SWARPO were used at 3000 times dilution. […] In a second experiment with more immobilized misfolded proteins and controls, the detection of bound HSP90 with the mix of two anti-HSP90 antibodies was achieved by mixing 1:1500 SWARPO with 1:3000 RAMPO. After 5 washes with wash buffer followed by two washes with PBS, binding of antibodies was assessed. Bound anti-FLAG-PO, peroxidase-conjugated rabbit anti-mouse immunoglobulins (RAMPO, P0260, DAKOCytomation, Glostrup, Denmark) or peroxidase-coupled swine anti-rabbit immunoglobulins (SWARPO, P0217, DAKOCytomation) was visualized with tetramethylbenzidine (TMB, #45.01.20,/#45.014.01, Biosource, Nivelles, Belgium). The reaction was stopped after 5 minutes with 1% H2SO4 in H2O. Plates were read at 450 nm. Triplicates were averaged and standard deviations calculated. Background signals obtained with buffer-coated wells were subtracted (binding of primary antibody to empty wells), as well as background signals obtained with ligand-coated wells in which the chaperones were omitted (binding of primary and secondary antibody to coated ligands). Subsequently, sub-optimal concentrations of chaperones for binding to misfolded protein ligands are determined, and these concentrations are used for inhibition studies.
In a subsequent study we analysed whether BiP interacts directly with the crossbeta structure, by performing ELISA binding studies with a fixed sub-optimal concentration of BiP and concentration series of crossbeta binding compounds. The results are depicted in FIGS. 12, 13 and Table 7. Binding of BiP without added crossbeta binding compounds was set to 100%.

Row | Substance | # of unique peptides (BiP-Sepharose; Sample 1B) | # of unique peptides (BiP-Sepharose; Sample 3B) | # of unique peptides (BiP-Sepharose; Sample 2B) | further results
1 | Apolipoprotein B-100 precursor | 9 | 12 | – | –
2 | Aβ1-40: amyloid-β 1-40 peptide coated in Example 7 | – | – | – | Binding of concentration series of BiP to coated ligand (human BiP [1]): has been established
3 | Clusterin precursor | 1 | 1 | 1 | –
4 | HSPA5 protein/BiP | 21 | 19 | 12 | # of unique peptides (BiP-Sepharose; Sample 4B): 10; # of unique peptides (BiP-Sepharose; Sample 5B): 10; # of unique peptides (BiP-Sepharose; Sample 6B): 17
5 | Haptoglobin precursor | 1 | 3 | – | –
6 | Heat shock 70 kDa protein 1L | 1 | 1 | 1 | # of unique peptides (BiP-Sepharose; Sample 5B): 1; # of unique peptides (BiP-Sepharose; Sample 6B): 1
7 | IGHG4 protein, immunoglobulin heavy constant gamma 4 | 4 | – | 1 | –
8 | IGKV1-5 protein, immunoglobulin kappa variable 1-5 | 3 | 5 | – | –
9 | Ig kappa chain V-IV region Len, immunoglobulin kappa variable 4-1 | – | 1 | – | –
10 | Isoform 1 of Fibrinogen alpha chain precursor | 3 | – | – | –
11 | KRLEVDIDIK [FP10, synthetic fibrin peptide without crossbeta structure (negative control)] | – | – | – | Binding of concentration series of BiP to coated ligand (human BiP [1]): did not bind
12 | LFWPFEWI [6BB9] | – | – | – | Binding of concentration series of BiP to coated ligand (human BiP [1]): has been established; Influence of Congo red on interaction of BiP with misfolded protein (human BiP [2]; fixed sub-optimal BiP concentration, concentration series of Congo red): ↓ (a ↓ sign refers to inhibited abolished binding of BiP); Influence of ThS on interaction of BiP with misfolded protein (human BiP [2]; fixed sub-optimal BiP concentration, concentration series of ThS): ↓ (a ↓ sign refers to inhibited abolished binding of BiP); Influence of ThT on interaction of BiP with misfolded protein (human BiP [2]; fixed sub-optimal BiP concentration, concentration series of ThT): ↓ (a ↓ sign refers to inhibited abolished binding of BiP)
13 | Neutrophil defensin 1 precursor | – | 1 | 1 | –
14 | Serotransferrin precursor | – | – | – | # of unique peptides (BiP-Sepharose; Sample 5B): 1
15 | Single-chain Fv (Fragment), Ig heavy chain V-III region TRO | 2 | – | – | –
16 | Thioflavin S [ThS] | – | – | – | Influence on interaction of BiP with misfolded proteins comprising crossbeta structure (summary in words) (human BiP [2]; BiP binding without compound set to 100%): can either potentiate BiP binding, or inhibit
17 | Vitronectin precursor | 1 | – | – | # of unique peptides (BiP-Sepharose; Sample 5B): 2; # of unique peptides (BiP-Sepharose; Sample 6B): 1
18 | fibronectin 1 isoform 4 preproprotein | 10 | – | 2 | # of unique peptides (BiP-Sepharose; Sample 5B): 2
19 | thrombin | – | – | – | Binding of concentration series of BiP to coated ligand (human BiP [1]): did not bind
